T1: AARS1^455 (Homo sapiens, UniProt P49588)
T1 construct: catalytic domain, residues 1-455, purified recombinant; tags and host only in supplement
T1 sequence (P49588 1-455): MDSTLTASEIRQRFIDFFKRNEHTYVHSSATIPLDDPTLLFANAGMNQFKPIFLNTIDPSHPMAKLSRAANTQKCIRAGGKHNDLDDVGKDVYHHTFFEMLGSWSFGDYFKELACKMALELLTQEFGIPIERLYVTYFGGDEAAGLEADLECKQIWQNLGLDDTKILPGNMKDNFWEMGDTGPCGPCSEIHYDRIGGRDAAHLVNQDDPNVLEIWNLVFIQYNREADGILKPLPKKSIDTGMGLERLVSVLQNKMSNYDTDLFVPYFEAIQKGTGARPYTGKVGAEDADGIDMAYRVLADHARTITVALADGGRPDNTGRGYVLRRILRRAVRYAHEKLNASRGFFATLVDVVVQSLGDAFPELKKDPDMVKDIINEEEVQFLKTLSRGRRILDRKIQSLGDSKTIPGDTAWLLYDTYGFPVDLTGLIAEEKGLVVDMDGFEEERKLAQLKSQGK


Tests used:
AARS1^455 = target: T1, AARS1^455; experiment: in vitro histone lactylation, pan-Klac immunoblot / mass spectrometry; format: biochemical; conditions: lactate and ATP present; dose-dependent; construct in Supplemental Figure 1F not told
TEAD1;YAP (1-291) = TEAD1;YAP (1-291) (human?;human?, UniProt P28347;P46937 1-426;1-291, |); experiment: EMSA; supershift of probe by YAP-TEAD1; 10 mM Tris-HCl pH 7.5, 50 mM KCl, 1 mM DTT, 2% glycerol, 25 C, 1 h; conditions: protein: recombinant;recombinant; (HS-TEAD1 in pull-down); copies: 1;1
YAP (1-291) = YAP (1-291) (UniProt P46937 1-291); experiment: EMSA; YAP alone; 10 mM Tris-HCl pH 7.5, 50 mM KCl, 1 mM DTT, 2% glycerol, 25 C, 1 h; conditions: protein: recombinant; tags: MBP
TEAD1 = TEAD1 (UniProt P28347 1-426); experiment: EMSA; 10 mM Tris-HCl pH 7.5, 50 mM KCl, 1 mM DTT, 2% glycerol, 25 C, 1 h; conditions: protein: recombinant; (HS-TEAD1 in pull-down)
Chain of TEAD1 (P28347 whole entry): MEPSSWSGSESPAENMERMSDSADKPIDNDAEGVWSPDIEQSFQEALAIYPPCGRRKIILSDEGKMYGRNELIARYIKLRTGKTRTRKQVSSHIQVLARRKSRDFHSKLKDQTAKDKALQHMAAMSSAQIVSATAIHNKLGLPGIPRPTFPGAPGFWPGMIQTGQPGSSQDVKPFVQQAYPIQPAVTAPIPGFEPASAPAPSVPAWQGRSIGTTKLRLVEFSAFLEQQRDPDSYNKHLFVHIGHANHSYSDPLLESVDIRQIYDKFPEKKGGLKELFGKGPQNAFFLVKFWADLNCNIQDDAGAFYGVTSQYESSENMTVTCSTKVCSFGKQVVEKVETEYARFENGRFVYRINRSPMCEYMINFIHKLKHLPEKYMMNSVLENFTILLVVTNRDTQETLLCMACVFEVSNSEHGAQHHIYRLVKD

Molecule | inhibition (AARS1^455) | binding result (TEAD1;YAP (1-291)) | binding result (YAP (1-291)) | binding result (TEAD1)
Nc1ncnc2c1ncn2[C@@H]1O[C@H](COP(=O)(O)O)[C@@H](O)[C@H]1O [AMP] | inclusion of PPi, AMP, and the synthetic lactyl-AMS | – | – | –
O=P(O)(O)OP(=O)(O)O [PPi] | inclusion of PPi, AMP, and the synthetic lactyl-AMS | – | – | –
AARS1 promoter probe (dsDNA) DNA 1: CAGACAGGGCCTCGCTCTGTCGCCCAAGGAATGCAGTGTCACGATCAGGGCTCACTGCAG DNA 2: CTGCAGTGAGCCCTGATCGTGACACTGCATTCCTTGGGCGACAGAGCGAGGCCCTGTCTG | – | binds | no binding | binds
